Assay results: patent US20230192896A1 (BIOVERATIV THERAPEUTICS, published 2023)

Experiments:
FIXa-SM (FIXa+EGR-CMK) = target: T1, FIXa-SM (FIXa+EGR-CMK) (human, UniProt P00740 47-191; P00740 227-461, EGR-CMK (L-Glu-Gly-Arg chloromethyl ketone) covalently bound to the active site); test: BLI; class meaning: paragraph 914
T1 construct: BLI antigen bought from Haematologic Technologies (HCIXA-EGR); also called FIXa with substrate mimic

[1] = target: T2, free FIXa (activated Factor IX) (human, UniProt P00740 47-191; P00740 227-461); test: BLI; class meaning: paragraph 914
T2 construct: BLI antigen bought from Haematologic Technologies (HCIXA-0050); also called factor IXa

binding result (FIXa-SM (FIXa+EGR-CMK)) | binding result [1] | Binder
binds | binds | BIIB-9-628 (antibody, V domains shown, IgG) VH: QVQLVQSGAEVKKPGASVKVSCKASGYTFTSYYMHWVRQAPGQGLEWMGIINPSGGSTSYAQKFQGRVTMTRDTSTSTVYMELSSLRSEDTAVYYCAREPIAYGATLDLWGRGTLVTVSS VL: EIVLTQSPGTLSLSPGERATLSCRASQSVSSDYLAWYQQKPGQAPRLLIYGASSRATGIPDRFSGSGSGTDFTLTISRLEPEDFAVYYCQQYVVFPFTFGGGTKVEIK
binds | binds | BIIB-9-884 (antibody, V domains shown, IgG) VH: QLQLQESGPGLVKPSETLSLTCTVSGGSISSSDYYWGWIRQPPGKGLEWIGSIYYSGSTYYNPSLKSRVTISVDTSKNQFSLKLSSVTAADTAVYYCARSPRHKVRGPNWFDPWGQGTLVTVSS VL: EIVLTQSPGTLSLSPGERATLSCRASQSVSSSYLAWYQQKPGQAPRLLIYGASSRATGIPDRFSGSGSGTDFTLTISRLEPEDFAVYYCQQYHLLPPTFGGGTKVEIK
binds | – | BIIB-9-573 (antibody, V domains shown, IgG) VH: QLQLQESGPGLVKPSETLSLTCTVSGGSISSSSYYWGWIRQPPGKGLEWIGSIYYSGSTYYNPSLKSRVTISVDTSKNQFSLKLSSVTAADTAVYYCARESKTKGYLDLWGRGTLVTVSS VL: EIVLTQSPGTLSLSPGERATLSCRASQSVSSSFLAWYQQKPGQAPRLLIYGASSRATGIPDRFSGSGSGTDFTLTISRLEPEDFAVYYCQQSHSPPYTFGGGTKVEIK
binds | binds | BIIB-9-886 (antibody, V domains shown, IgG) VH: QVQLVQSGAEVKKPGASVKVSCKASGYTFTSYYMHWVRQAPGQGLEWMGIINPSGGSTSYAQKFQGRVTMTRDTSTSTVYMELSSLRSEDTAVYYCARDPAHSYLDAFDIWGQGTMVTVSS VL: DIQMTQSPSSVSASVGDRVTITCRASQGISSWLAWYQQKPGKAPKLLIYAASSLQSGVPSRFSGSGSGTDFTLTISSLQPEDFATYYCQQASSFPFTFGGGTKVEIK
binds | binds | BIIB-9-887 (antibody, V domains shown, IgG) VH: QVQLVQSGAEVKKPGASVKVSCKASGYTFTSYYMVWVRQAPGQGLEWMGIINPSGGSTSYAQKFQGRVTMTRDTSTSTVYMELSSLRSEDTAVYYCARDAEAHWIPGMDVWGQGTTVTVSS VL: DIQMTQSPSSVSASVGDRVTITCRASQGISSWLAWYQQKPGKAPKLLIYAASSLQSGVPSRFSGSGSGTDFTLTISSLQPEDFATYYCQQASSFPFTFGGGTKVEIK
– | binds | BIIB-9-416 (antibody, V domains shown, IgG) VH: QVQLVQSGAEVKKPGASVKVSCKASGYTFTSYYMHWVRQAPGQGLEWMGIINPSGGSTSYAQKFQGRVTMTRDTSTSTVYMELSSLRSEDTAVYYCAREGPMLDYPTYSNWFDPWGQGTLVTVS VL: EIVMTQSPATLSLSPGERATLSCRASQSVSSYLAWYQQKPGQAPRLLIYDSSNRATGIPARFSGSGSGTDFTLTISSLEPEDFAVYYCQQRVVWPPTFGGGTKVEIK
binds | binds | BIIB-9-471 (antibody, V domains shown, IgG) VH: QVQLQESGPGLVKPSQTLSLTCTVSGGSISSGGYYWSWIRQHPGKGLEWIGYIYYSGSTYYNPSLKSRVTISVDTSKNQFSLKLSSVTAADTAVYYCARSGVSGSGSDNWFDPWGQGTTVTVSS VL: EIVLTQSPATLSLSPGERATLSCRASQSVSRYLAWYQQKPGQAPRLLIYDASNRATGIPARFSGSGSGTDFTLTISSLEPEDFAVYYCQQDYNYPFTFGGGTKVEIK
binds | binds | BIIB-9-615 (antibody, V domains shown, IgG) VH: QVQLVQSGAEVKKPGASVKVSCKASGYTFTSYYMHWVRQAPGQGLEWMGIINPSGGSTSYAQKFQGRVTMTRDTSTSTVYMELSSLRSEDTAVYYCARDSPSSSSYWSLDLWGRGTLVTVSS VL: EIVLTQSPATLSLSPGERATLSCRASQSVSSYLAWYQQKPGQAPRLLIYDASNRATGIPARFSGSGSGTDFTLTISSLEPEDFAVYYCQQSCHWPWTFGGGTKVEIK
– | binds | BIIB-9-885 (antibody, V domains shown, IgG) VH: QVQLVQSGAEVKKPGASVKVSCKASGYTFTSYYMHWVRQAPGQGLEWMGIINPSGGSTSYAQKFQGRVTMTRDTSTSTVYMELSSLRSEDTAVYYCAREGPMLDYPTYSNWFDPWGQGTLVTVSS VL: EIVLTQSPATLSLSPGERATLSCRASQSVSSYLAWYQQKPGQAPRLLIYDASKRATGIPARFSGSGSGTDFTLTISSLEPEDFAVYYCQQRVIWPPTFGGGTKVEIK
binds | binds | BIIB-9-472 (antibody, V domains shown, IgG) VH: EVQLVESGGGLVKPGGSLRLSCAASGFTFSSYSMNWVRQAPGKGLEWVSSISSSSSYIYYADSVKGRFTISRDNAKNSLYLQMNSLRAEDTAVYYCARGGRYSGSWSWNIWGQGTMVTVSS VL: not shown
binds | binds | BIIB-9-446 (antibody, V domains shown, IgG) VH: QVQLVQSGAEVKKPGSSVKVSCKASGGTFSSYAISWVRQAPGQGLEWMGGIIPIFGTASYAQKFQGRVTITADESTSTAYMELSSLRSEDTAVYYCARGLEVGYYGYFDYWGQGTLVTVSS VL: not shown
binds | binds | BIIB-9-607 (antibody, V domains shown, IgG) VH: QLQLQESGPGLVKPSETLSLTCTVSGGSISSSSYYWGWIRQPPGKGLEWIGSISYSGSTYYNPSLKSRVTISVDTSKNQFSLKLSSVTAADTAVYYCARDRGYSYEDFDLWGRGTLVTVS VL: DIQMTQSPSTLSASVGDRVTITCRASQSISSWLAWYQQKPGKAPKLLIYKASSLESGVPSRFSGSGSGTEFTLTISSLQPDDFATYYCQQAGRYPLTFGGGTKVEIK
binds | binds | BIIB-9-568 (antibody, V domains shown, IgG) VH: QLQLQESGPGLVKPSETLSLTCTVSGGSISSSSYYWGWIRQPPGKGLEWIGSIYYSGSTYYNPSLKSRVTISVDTSKNQFSLKLSSVTAADTAVYYCARDLGYAATYFDLWGRGTLVTVSS VL: DIQMTQSPSSLSASVGDRVTITCQASQDISNYLNWYQQKPGKAPKLLIYDASNLETGVPSRFSGSGSGTDFTFTISSLQPEDIATYYCQQYDDYLTFGGGTKVEIK
binds | binds | BIIB-9-889 (antibody, V domains shown, IgG) VH: QLQLQESGPGLVKPSETLSLTCTVSGGSISSSSYYWGWIRQPPGKGLEWIGSIYYSGSTYYNPSLKSRVTISVDTSKNQFSLKLSSVTAADTAVYYCARDVGWYTEYFDLWGRGTLVTVSS VL: EIVMTQSPATLSVSPGERATLSCRASQSVSSNLAWYQQKPGQAPRLLIYGASTRATGIPARFSGSGSGTEFTLTISSLQSEDFAVYYCQQAFNWPPTFGGGTKVEIK
binds | binds | BIIB-9-882 (antibody, V domains shown, IgG) VH: QVQLVQSGAEVKKPGASVKVSCKASGYTFTSYYMHWVRQAPGQGLEWMGIINPSGGSTSYAQKFQGRVTMTRDTSTSTVYMELSSLRSEDTAVYYCARGPTDSSGYLDMDVWGKGTTVTVSS VL: EIVMTQSPATLSVSPGERATLSCRASQSVSSNLAWYQQKPGQAPRLLIFGASTRATGIPARFSGSGSGTEFTLTISSLQSEDFAVYYCQQHDNFPPTFGGGTKVEIK
binds | binds | BIIB-9-888 (antibody, V domains shown, IgG) VH: QVQLVQSGAEVKKPGASVKVSCKASGYTFTSYYMHWVRQAPGQGLEWMGIINPSGGSTSYAQKFQGRVTMTRDTSTSTVYMELSSLRSEDTAVYYCARGPTDSSGYLDMDVWGKGTTVTVSS VL: EIVMTQSPATLSVSPGERATLSCRASQSVSSNLAWYQQKPGQAPRLLIYGASTRATGIPARFSGSGSGTEFTLTISSLQPEDFAVYYCQQAFNWPPTFGGGTKVEIK
– | binds | BIIB-9-629 (antibody, V domains shown, IgG) VH: QVQLVQSGAEVKKPGASVKVSCKASGYTFTSYYMHWVRQAPGQGLEWMGVINPSGGSTSYAQKFQGRVTMTRDTSTSTVYMELSSLRSEDTAVYYCARDPSQDYATGTGWFDPWGQGTLVTVSS VL: DIQLTQSPSSLSASVGDRVTITCQASQDISNYLNWYQQKPGKAPKLLIYDASNLETGVPSRFSGSGSGTDFTFTISSLQPEDIATYYCQQLDSLPPTFGGGTKVEIK
– | binds | BIIB-9-408 (antibody, V domains shown, IgG) VH: QVQLVQSGAEVKKPGASVKVSCKASGYTFTSYYMHWVRQAPGQGLEWMGIINPSGGSTTYAQKFQGRVTMTRDTSTSTVYMELSSLRSEDTAVYYCARDPGAYDDWSGYDDYGMDVWGQGTTVTVSS VL: EIVLTQSPATLSLSPGERATLSCRASQSVSSYLAWYQQKPGQAPRLLIYDASNRATGIPARFSGSGSGTDFTLTISSLEPEDFAVYYCQQAFVWPPITFGGGTKVEIK
binds | binds | BIIB-9-1280 (antibody, V domains shown, IgG) VH: QVQLVQSGAEVKKPGASVKVSCKASGYTFTSYYMVWVRQAPGQGLEWMGIINPSGGSTSYAQKFQGRVTMTRDTSTSTVYMELSSLRSEDTAVYYCARGPWYSYYYMDVWGKGTTVTVSS VL: not shown
binds | binds | BIIB-9-1266 (antibody, V domains shown, IgG) VH: QVQLVQSGAEVKKPGASVKVSCKASGYTFTSYYMHWVRQAPGQGLEWMGIINPSGGSTSYAQKFQGRVTMTRDTSTSTVYMELSSLRSEDTAVYYCARDHGWAIYGMDVWGQGTTVTVSS VL: EIVMTQSPATLSLSPGERATLSCRASQSVSSYLAWYQQKPGQAPRLLIYDSSNRATGIPARFSGSGSGTDFTLTISSLEPEDFAVYYCQQRLNFPFTFGGGTKVEIK
binds | binds | BIIB-9-439 (antibody, V domains shown, IgG) VH: QVQLVQSGAEVKKPGASVKVSCKASGYTFTSYYMHWVRQAPGQGLEWMGIINPSGGSTTYAQKFQGRVTMTRDTSTSTVYMELSSLRSEDTAVYYCAREATESYYYMDVWGKGTTVTVSS VL: EIVMTQSPATLSLSPGERATLSCRASQSVSSYLAWYQQKPGQAPRLLIYDSSNRATGIPARFSGSGSGTDFTLTISSLEPEDFAVYYCQQRDNWPFTFGGGTKVEIK
